# Patent publication US20250019439A1 (Adimab, published 2025)
# B1: ADI-34134 Fab (Fab, V domains shown)
# VH: QVQLVQSGAEVKKPGSSVKVSCKASGGTFSSYAISWVRQAPGQGLEWMGGIIPIFGTANYAQKFQGRVTITADESTSTAYMELSSLRSEDTAVYYCARGAPNYYGSGGYDDGWFDPWGQGTLVTVSS
# VL: EIVLTQSPGTLSLSPGERATLSCRASQSVSSDYLAWYQQKPGQAPRLLIYGASSRATGIPDRFSGSGSGTDFTLTISRLEPEDFAVYYCQQFGRVPTFGGGTKVEIK
# notes: Fab made by papain digestion of the IgG
# B2: ADI-34145 Fab (Fab, V domains shown)
# VH: EVQLLESGGGLVQPGGSLRLSCAASGFTFSSYAMSWVRQAPGKGLEWVSTISGSGGSTYYADSVKGRFTISRDNSKNTLYLQMNSLRAEDTAVYYCARLGGRRGSGSSYYYYYGMDVWGQGTTVTVSS
# VL: not shown
# notes: as for B1
# What was measured:
# [1] = target: T1, ADI-22523 IgG; experiment: BLI; tip anti-CD3 IgG, solution ADI-34134 Fab
# T1 construct: anti-CD3 IgG
# T1 sequence (VH, as listed by the source limits assumed, chain 1 of 2): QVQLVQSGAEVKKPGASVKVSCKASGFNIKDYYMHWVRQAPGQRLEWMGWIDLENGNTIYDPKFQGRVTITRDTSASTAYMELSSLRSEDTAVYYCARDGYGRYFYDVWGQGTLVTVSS
# T1 sequence (VL, as listed by the source limits assumed, chain 2 of 2): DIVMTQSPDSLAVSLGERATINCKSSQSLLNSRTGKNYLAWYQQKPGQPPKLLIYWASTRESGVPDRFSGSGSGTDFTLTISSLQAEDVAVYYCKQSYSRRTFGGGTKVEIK
# Protocol: (§1) ForteBio affinity measurements were performed generally as previously described (Estep et al., MAbs. 2013 5(2):270-8). Briefly, ForteBio affinity measurements were performed by loading antibody IgG or Fabs on-line onto AHC sensors. Sensors were equilibrated off-line in assay buffer for 30 minutes and then monitored on-line for 60 seconds for baseline establishment. For avid binding measurement, sensors with loaded antibodies were exposed to IgG or Fab solutions for 3 minutes, afterwards they were transferred to assay buffer for 3 minutes for off-rate measurement. Kinetics data were fit using a 1:1 binding model in the data analysis software provided by ForteBio to obtain equilibrium dissociation constant (KD=koff/kₒₙ) values. In each column, tip-immobilized antibodies are listed first and solution antibodies second.
# (§2) CTL-19613 is an IgG1 antibody prepared with anti-CD3 variable domains corresponding with those of clone 12C described in United States Publication Number US 2010/0183615 (e.g., see paragraphs 469-479 and FIG. 25 thereof), which also make up the CD3 binding domain of the bispecific antibody pasotuxizumab. […] In each column, tip-immobilized antibodies are listed first and solution antibodies second.
# [2] = target: T2, ADI-26927 IgG; experiment: BLI; tip anti-CD3 IgG, solution ADI-34134 Fab
# T2 construct: anti-CD3 IgG
# T2 sequence (VH, as listed by the source limits assumed, chain 1 of 2): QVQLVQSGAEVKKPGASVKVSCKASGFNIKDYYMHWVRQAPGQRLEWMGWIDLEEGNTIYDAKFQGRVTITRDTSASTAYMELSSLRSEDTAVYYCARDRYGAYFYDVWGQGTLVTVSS
# T2 sequence (VL, as listed by the source limits assumed, chain 2 of 2): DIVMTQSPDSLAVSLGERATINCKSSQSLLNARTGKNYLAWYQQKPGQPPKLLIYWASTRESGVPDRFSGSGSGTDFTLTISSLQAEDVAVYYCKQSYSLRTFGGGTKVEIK
# Protocol: as §1, §2
# [3] = target: T3, ADI-26928 IgG; experiment: BLI; tip anti-CD3 IgG, solution ADI-34134 Fab
# T3 construct: anti-CD3 IgG
# T3 sequence (VH, as listed by the source limits assumed, chain 1 of 2): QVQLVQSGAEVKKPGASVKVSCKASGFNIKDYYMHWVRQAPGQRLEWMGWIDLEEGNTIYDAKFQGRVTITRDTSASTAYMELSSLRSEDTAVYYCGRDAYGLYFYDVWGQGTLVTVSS
# Protocol: as §1, §2
# [4] = target: T4, ADI-26941 IgG; experiment: BLI; tip anti-CD3 IgG, solution ADI-34134 Fab
# T4 construct: anti-CD3 IgG
# T4 sequence (VH, as listed by the source limits assumed, chain 1 of 2): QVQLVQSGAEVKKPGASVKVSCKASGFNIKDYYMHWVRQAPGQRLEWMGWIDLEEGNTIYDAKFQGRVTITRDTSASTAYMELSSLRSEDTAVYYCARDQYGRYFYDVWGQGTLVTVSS
# T4 sequence (VL, as listed by the source limits assumed, chain 2 of 2): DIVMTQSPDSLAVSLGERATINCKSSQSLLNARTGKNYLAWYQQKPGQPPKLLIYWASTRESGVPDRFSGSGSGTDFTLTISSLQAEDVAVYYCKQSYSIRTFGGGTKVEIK
# Protocol: as §1, §2
# [5] = target: CTL-19613 IgG; experiment: BLI; tip anti-CD3 IgG, solution ADI-34134 Fab
# Protocol: as §1, §2
# [6] = target: T5, ADI-26906 IgG; experiment: BLI; tip anti-CD3 IgG, solution ADI-34134 Fab
# T5 construct: anti-CD3 IgG
# T5 sequence (VH, as listed by the source limits assumed, chain 1 of 2): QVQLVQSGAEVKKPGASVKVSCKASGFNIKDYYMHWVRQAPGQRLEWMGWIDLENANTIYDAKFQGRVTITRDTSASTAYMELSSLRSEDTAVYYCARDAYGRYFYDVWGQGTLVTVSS
# T5 sequence (VL, as listed by the source limits assumed, chain 2 of 2): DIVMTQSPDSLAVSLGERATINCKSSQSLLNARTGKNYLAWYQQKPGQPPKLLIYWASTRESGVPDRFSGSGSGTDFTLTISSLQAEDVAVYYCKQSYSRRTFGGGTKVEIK
# Protocol: as §1, §2
# [7] = target: T6, ADI-26913 IgG; experiment: BLI; tip anti-CD3 IgG, solution ADI-34134 Fab
# T6 construct: anti-CD3 IgG
# T6 sequence (VH, as listed by the source limits assumed, chain 1 of 2): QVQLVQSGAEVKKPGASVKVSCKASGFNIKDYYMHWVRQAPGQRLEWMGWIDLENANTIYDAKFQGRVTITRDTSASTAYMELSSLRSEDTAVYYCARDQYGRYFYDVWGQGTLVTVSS
# Protocol: as §1, §2
# [8] = target: T7, ADI-26920 IgG; experiment: BLI; tip anti-CD3 IgG, solution ADI-34134 Fab
# T7 construct: anti-CD3 IgG
# T7 sequence (VH, as listed by the source limits assumed, chain 1 of 2): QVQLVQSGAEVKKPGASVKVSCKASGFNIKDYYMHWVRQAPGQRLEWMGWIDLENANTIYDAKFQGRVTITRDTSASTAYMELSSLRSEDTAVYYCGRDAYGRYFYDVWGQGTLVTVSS
# Protocol: as §1, §2
# [9] = target: T8, ADI-26921 IgG; experiment: BLI; tip anti-CD3 IgG, solution ADI-34134 Fab
# T8 construct: anti-CD3 IgG
# T8 sequence (VH, as listed by the source limits assumed, chain 1 of 2): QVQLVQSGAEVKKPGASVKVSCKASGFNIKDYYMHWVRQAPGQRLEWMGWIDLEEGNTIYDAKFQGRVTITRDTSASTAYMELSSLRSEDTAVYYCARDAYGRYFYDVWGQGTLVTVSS
# Protocol: as §1, §2
# [10] = target: T9, ADI-26916 IgG; experiment: BLI; tip anti-CD3 IgG, solution ADI-34134 Fab
# T9 construct: anti-CD3 IgG
# T9 sequence (VH, as listed by the source, chain 1 of 2): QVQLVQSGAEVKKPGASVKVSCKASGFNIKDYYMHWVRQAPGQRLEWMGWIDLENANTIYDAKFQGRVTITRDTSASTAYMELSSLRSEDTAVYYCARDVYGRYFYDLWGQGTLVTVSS
# Protocol: as §1, §2
# [11] = target: T10, ADI-22523 anti-CD3 bsIgG (In the assayed molecule VL and VH are joined as one scFv (printed 'Vx-VH' orientation) by an undisclosed linker and fused to an Fc, paired with an anti-HER2 half-IgG. They are given here as two …); experiment: BLI; tip anti-CD3 bsIgG, solution ADI-34134 Fab
# T10 construct: anti-HER2 IgG with one Fab arm replaced by the anti-CD3 scFv (printed 'Vx-VH', read as VL-VH); S354C and Y349C mutations; not shown: scFv linker between VL and VH; anti-HER2 heavy and light chains; hinge and Fc with S354C/Y349C
# T10 sequence (VH, as listed by the source limits assumed, chain 1 of 2): as the sequence (VH, as listed by the source, chain 1 of 2) above, with A56G, A62P, V100G, L108V counted along it
# Protocol: as §1
# (§3) Additional analysis was conducted using bispecific antibody formats incorporating anti-CD3 antibody variable domains. Bispecific antibodies were prepared using standard IgG formats (bsIgG) with replacement of Fab arms with anti-CD3 scFvs in Vx-VH orientation and with S354C and Y349C mutations for disulfide stabilization. Antibodies used for Fab arm replacement were anti-HER2 IgG antibodies, with one Fab arm from each replaced by a scFv corresponding to a different anti-CD3 antibody. […] In each column, tip-immobilized antibodies are listed first and solution antibodies second. Anti-CD3 antibodies associated with incorporated scFvs are listed by antibody number.
# [12] = target: T11, ADI-26906 anti-CD3 bsIgG; experiment: BLI; tip anti-CD3 bsIgG, solution ADI-34134 Fab
# T11 construct: anti-HER2 IgG with one Fab arm replaced by the anti-CD3 scFv (printed 'Vx-VH', read as VL-VH); S354C and Y349C mutations; also called anti-CD3 bsIgG (ADI-26906 scFv); not shown: scFv linker; anti-HER2 Fab arm (heavy and light chain); hinge and Fc with S354C/Y349C
# T11 sequence (VH, as listed by the source limits assumed, chain 1 of 2): as the sequence (VH, as listed by the source, chain 1 of 2) above, with V100A, L108V counted along it
# Protocol: as §1, §3
# [13] = target: T12, ADI-26913 anti-CD3 bsIgG; experiment: BLI; tip anti-CD3 bsIgG, solution ADI-34134 Fab
# T12 construct: anti-HER2 IgG with one Fab arm replaced by the anti-CD3 scFv (printed 'Vx-VH', read as VL-VH); S354C and Y349C mutations; also called anti-CD3 bsIgG (ADI-26913 scFv); not shown: scFv linker; anti-HER2 Fab arm (heavy and light chain); hinge and Fc with S354C/Y349C
# T12 sequence (VH, as listed by the source limits assumed, chain 1 of 2): as the sequence (VH, as listed by the source, chain 1 of 2) above, with V100Q, L108V counted along it
# Protocol: as §1, §3
# [14] = target: T13, ADI-26920 anti-CD3 bsIgG; experiment: BLI; tip anti-CD3 bsIgG, solution ADI-34134 Fab
# T13 construct: anti-HER2 IgG with one Fab arm replaced by the anti-CD3 scFv (printed 'Vx-VH', read as VL-VH); S354C and Y349C mutations; also called anti-CD3 bsIgG (ADI-26920 scFv); not shown: scFv linker; anti-HER2 Fab arm (heavy and light chain); hinge and Fc with S354C/Y349C
# T13 sequence (VH, as listed by the source limits assumed, chain 1 of 2): as the sequence (VH, as listed by the source, chain 1 of 2) above, with A97G, V100A, L108V counted along it
# Protocol: as §1, §3
# [15] = target: T14, ADI-26921 anti-CD3 bsIgG; experiment: BLI; tip anti-CD3 bsIgG, solution ADI-34134 Fab
# T14 construct: anti-HER2 IgG with one Fab arm replaced by the anti-CD3 scFv (printed 'Vx-VH', read as VL-VH); S354C and Y349C mutations; also called anti-CD3 bsIgG (ADI-26921 scFv); not shown: scFv linker; anti-HER2 Fab arm (heavy and light chain); hinge and Fc with S354C/Y349C
# T14 sequence (VH, as listed by the source limits assumed, chain 1 of 2): as the sequence (VH, as listed by the source, chain 1 of 2) above, with N55E, A56G, V100A, L108V counted along it
# Protocol: as §1, §3
# [16] = target: T15, ADI-26927 anti-CD3 bsIgG; experiment: BLI; tip anti-CD3 bsIgG, solution ADI-34134 Fab
# T15 construct: anti-HER2 IgG with one Fab arm replaced by the anti-CD3 scFv (printed 'Vx-VH', read as VL-VH); S354C and Y349C mutations; also called anti-CD3 bsIgG (ADI-26927 scFv); not shown: scFv linker; anti-HER2 Fab arm (heavy and light chain); hinge and Fc with S354C/Y349C
# T15 sequence (VH, as listed by the source limits assumed, chain 1 of 2): as the sequence (VH, as listed by the source, chain 1 of 2) above, with N55E, A56G, V100R, R103A, L108V counted along it
# Protocol: as §1, §3
# [17] = target: T16, ADI-26928 anti-CD3 bsIgG; experiment: BLI; tip anti-CD3 bsIgG, solution ADI-34134 Fab
# T16 construct: anti-HER2 IgG with one Fab arm replaced by the anti-CD3 scFv (printed 'Vx-VH', read as VL-VH); S354C and Y349C mutations; also called anti-CD3 bsIgG (ADI-26928 scFv); not shown: scFv linker; anti-HER2 Fab arm (heavy and light chain); hinge and Fc with S354C/Y349C
# T16 sequence (VH, as listed by the source limits assumed, chain 1 of 2): as the sequence (VH, as listed by the source, chain 1 of 2) above, with N55E, A56G, A97G, V100A, R103L, L108V counted along it
# Protocol: as §1, §3
# [18] = target: T17, CTL-19613 anti-CD3 bsIgG (In the assay the two domains were one scFv (VL-VH orientation, linker not given). It replaced one Fab arm of an anti-HER2 IgG; S354C and Y349C mutations are stated for disulfide stabilization.); experiment: BLI; tip anti-CD3 bsIgG, solution ADI-34134 Fab
# T17 construct: anti-HER2 IgG with one Fab arm replaced by the anti-CD3 scFv (printed 'Vx-VH', read as VL-VH); S354C and Y349C mutations; also called anti-CD3 bsIgG (CTL-19613 scFv); not shown: scFv linker between VL and VH; anti-HER2 heavy and light chains of the other arm; hinge and Fc (with S354C / Y349C)
# Protocol: as §1, §3
# [19] = target: T1, ADI-22523 IgG; experiment: BLI; tip anti-CD3 IgG, solution ADI-34145 Fab
# Protocol: as §1, §2
# [20] = target: CTL-19613 IgG; experiment: BLI; tip anti-CD3 IgG, solution ADI-34145 Fab
# Protocol: as §1, §2
# [21] = target: T18, CTL-19672 IgG; experiment: BLI; tip anti-CD3 IgG, solution ADI-34145 Fab
# T18 construct: IgG1 with the anti-CD3 variable domains of clone 38E4v1
# T18 sequence (VH, as listed by the source limits assumed, chain 1 of 2): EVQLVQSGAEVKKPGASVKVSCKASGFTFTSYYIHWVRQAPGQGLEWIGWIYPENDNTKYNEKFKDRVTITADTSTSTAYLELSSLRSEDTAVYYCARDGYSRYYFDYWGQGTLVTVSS
# T18 sequence (VL, as listed by the source limits assumed, chain 2 of 2): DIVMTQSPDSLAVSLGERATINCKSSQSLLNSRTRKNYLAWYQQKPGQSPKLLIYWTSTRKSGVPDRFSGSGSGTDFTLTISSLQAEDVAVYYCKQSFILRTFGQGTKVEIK
# Protocol: as §1, §2
# [22] = target: T5, ADI-26906 IgG; experiment: BLI; tip anti-CD3 IgG, solution ADI-34145 Fab
# Protocol: as §1, §2
# [23] = target: T6, ADI-26913 IgG; experiment: BLI; tip anti-CD3 IgG, solution ADI-34145 Fab
# Protocol: as §1, §2
# [24] = target: T7, ADI-26920 IgG; experiment: BLI; tip anti-CD3 IgG, solution ADI-34145 Fab
# Protocol: as §1, §2
# [25] = target: T9, ADI-26916 IgG; experiment: BLI; tip anti-CD3 IgG, solution ADI-34145 Fab
# Protocol: as §1, §2
# [26] = target: T11, ADI-26906 anti-CD3 bsIgG; experiment: BLI; tip anti-CD3 bsIgG, solution ADI-34145 Fab
# Protocol: as §1, §3
# [27] = target: T12, ADI-26913 anti-CD3 bsIgG; experiment: BLI; tip anti-CD3 bsIgG, solution ADI-34145 Fab
# Protocol: as §1, §3
# [28] = target: T13, ADI-26920 anti-CD3 bsIgG; experiment: BLI; tip anti-CD3 bsIgG, solution ADI-34145 Fab
# Protocol: as §1, §3
# [29] = target: T19, CTL-19672 anti-CD3 bsIgG (In the assay the two domains were one scFv (VL-VH orientation, linker not given). It replaced one Fab arm of an anti-HER2 IgG; S354C and Y349C mutations are stated for disulfide stabilization.); experiment: BLI; tip anti-CD3 bsIgG, solution ADI-34145 Fab
# T19 construct: anti-HER2 IgG with one Fab arm replaced by the anti-CD3 scFv (printed 'Vx-VH', read as VL-VH); S354C and Y349C mutations; not shown: scFv linker between VL and VH; anti-HER2 heavy and light chains of the other arm; hinge and Fc (with S354C / Y349C)
# Protocol: as §1, §3
# [30] = target: T17, CTL-19613 anti-CD3 bsIgG; experiment: BLI; tip anti-CD3 bsIgG, solution ADI-34145 Fab
# Protocol: as §1, §3
binder,measurement,setting,value
B1,Kd,[1],5.68 nM
same,Kd,[2],38.2 nM
same,Kd,[3],185 nM
same,Kd,[4],138 nM
same,binding result,[5],no binding
same,Kd,[6],17.8 nM
same,Kd,[7],79.8 nM
same,Kd,[8],31 nM
same,Kd,[9],56.5 nM
same,Kd,[10],157 nM
same,Kd,[11],10.9 nM
same,Kd,[12],27.2 nM
same,Kd,[13],74.2 nM
same,Kd,[14],28.7 nM
same,Kd,[15],37.1 nM
same,Kd,[16],48.9 nM
same,Kd,[17],110 nM
same,binding result,[18],no binding
B2,Kd,[19],3.22 nM
same,binding result,[20],no binding
same,binding result,[21],no binding
same,Kd,[22],3.25 nM
same,Kd,[23],3.15 nM
same,Kd,[24],8.97 nM
same,Kd,[25],19.4 nM
same,Kd,[26],24.4 nM
same,Kd,[27],159 nM
same,Kd,[28],93.8 nM
same,binding result,[29],no binding
same,binding result,[30],no binding
